Test results: US20250262210A1 (TRUSTEES OF COLUMBIA UNIVERSITY IN THE CITY OF NEW YORK, published 2025)

What was measured:
Experiment in all cases: IP/MS, LZTR1 wild type-FLAG, U87
IFT172 = IFT172 (human, UniProt Q9UG01 1-1749, limits assumed)
Method in brief: (§1)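 Extracted peptides in 3% acetonitrile/0.1% formic acid ran on a 50 cm C18 column into an Orbitrap Fusion, with MaxQuant identification and spectral counting.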

HECTD3 = molecular target: T1, HECTD3 (human, UniProt Q5T447 2-861, limits assumed)
T1 sequence (looked up): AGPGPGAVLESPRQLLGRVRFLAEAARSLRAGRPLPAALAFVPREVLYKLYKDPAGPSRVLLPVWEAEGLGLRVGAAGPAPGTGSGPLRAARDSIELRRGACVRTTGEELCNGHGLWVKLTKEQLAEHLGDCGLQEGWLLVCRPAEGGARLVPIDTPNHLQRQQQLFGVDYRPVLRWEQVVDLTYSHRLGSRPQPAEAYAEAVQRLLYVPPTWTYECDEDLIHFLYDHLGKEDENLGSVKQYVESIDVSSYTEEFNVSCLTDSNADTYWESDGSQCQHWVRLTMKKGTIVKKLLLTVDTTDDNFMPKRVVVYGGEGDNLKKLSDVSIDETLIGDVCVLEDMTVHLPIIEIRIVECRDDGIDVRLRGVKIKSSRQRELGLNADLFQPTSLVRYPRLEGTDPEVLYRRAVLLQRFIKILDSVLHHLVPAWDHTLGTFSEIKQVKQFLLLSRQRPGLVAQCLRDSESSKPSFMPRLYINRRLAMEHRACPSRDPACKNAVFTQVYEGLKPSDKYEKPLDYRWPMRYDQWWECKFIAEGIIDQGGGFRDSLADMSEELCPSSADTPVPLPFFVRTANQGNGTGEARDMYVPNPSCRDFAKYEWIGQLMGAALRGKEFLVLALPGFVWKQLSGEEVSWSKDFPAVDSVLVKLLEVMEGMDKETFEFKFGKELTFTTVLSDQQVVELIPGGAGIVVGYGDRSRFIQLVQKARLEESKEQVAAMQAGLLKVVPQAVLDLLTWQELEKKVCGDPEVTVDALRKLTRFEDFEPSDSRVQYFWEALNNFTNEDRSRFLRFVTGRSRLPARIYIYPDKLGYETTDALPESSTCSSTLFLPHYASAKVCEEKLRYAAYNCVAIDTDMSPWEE
Method in brief: as §1

POLR3A = molecular target: T2, POLR3A (human, UniProt O14802 1-1390)
T2 sequence (looked up): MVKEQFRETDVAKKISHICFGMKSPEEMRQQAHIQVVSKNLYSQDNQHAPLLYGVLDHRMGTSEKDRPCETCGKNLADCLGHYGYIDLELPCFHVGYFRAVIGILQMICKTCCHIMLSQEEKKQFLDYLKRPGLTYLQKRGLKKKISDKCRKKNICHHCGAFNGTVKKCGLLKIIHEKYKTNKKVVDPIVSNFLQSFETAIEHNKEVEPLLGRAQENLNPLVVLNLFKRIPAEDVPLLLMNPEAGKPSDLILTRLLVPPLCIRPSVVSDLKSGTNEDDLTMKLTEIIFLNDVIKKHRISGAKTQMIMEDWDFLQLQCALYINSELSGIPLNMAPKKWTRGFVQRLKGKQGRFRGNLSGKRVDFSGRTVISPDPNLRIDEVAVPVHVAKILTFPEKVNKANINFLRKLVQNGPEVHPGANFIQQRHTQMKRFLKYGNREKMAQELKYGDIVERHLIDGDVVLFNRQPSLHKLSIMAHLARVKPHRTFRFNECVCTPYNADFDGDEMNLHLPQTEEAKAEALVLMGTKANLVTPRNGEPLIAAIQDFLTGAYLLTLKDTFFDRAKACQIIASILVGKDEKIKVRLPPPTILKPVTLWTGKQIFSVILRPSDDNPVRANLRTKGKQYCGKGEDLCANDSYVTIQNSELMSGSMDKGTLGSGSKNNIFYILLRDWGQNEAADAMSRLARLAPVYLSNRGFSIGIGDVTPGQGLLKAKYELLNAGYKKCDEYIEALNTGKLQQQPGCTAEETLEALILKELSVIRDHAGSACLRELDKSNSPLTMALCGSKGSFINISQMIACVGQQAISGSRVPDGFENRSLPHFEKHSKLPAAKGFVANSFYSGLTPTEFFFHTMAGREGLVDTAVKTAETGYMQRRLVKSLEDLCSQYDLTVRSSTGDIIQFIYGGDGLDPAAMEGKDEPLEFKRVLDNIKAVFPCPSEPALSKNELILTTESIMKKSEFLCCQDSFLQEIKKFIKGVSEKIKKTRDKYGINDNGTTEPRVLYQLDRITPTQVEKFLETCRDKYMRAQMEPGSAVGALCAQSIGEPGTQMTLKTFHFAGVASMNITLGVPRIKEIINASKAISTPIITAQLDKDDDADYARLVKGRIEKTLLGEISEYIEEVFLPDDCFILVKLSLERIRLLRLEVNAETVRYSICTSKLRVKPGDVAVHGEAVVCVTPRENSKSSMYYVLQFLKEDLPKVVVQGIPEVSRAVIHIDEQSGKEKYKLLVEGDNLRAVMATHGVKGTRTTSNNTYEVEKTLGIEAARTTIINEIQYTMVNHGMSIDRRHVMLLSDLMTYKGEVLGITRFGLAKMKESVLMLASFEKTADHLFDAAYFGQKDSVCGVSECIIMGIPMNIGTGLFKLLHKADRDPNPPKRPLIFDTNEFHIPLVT
Method in brief: as §1

THADA = THADA (human, UniProt Q6YHU6 1-1953, limits assumed)
Method in brief: as §1

Measured: binding result

Chain of IFT172 (Q9UG01 whole entry, the tested form may be a part): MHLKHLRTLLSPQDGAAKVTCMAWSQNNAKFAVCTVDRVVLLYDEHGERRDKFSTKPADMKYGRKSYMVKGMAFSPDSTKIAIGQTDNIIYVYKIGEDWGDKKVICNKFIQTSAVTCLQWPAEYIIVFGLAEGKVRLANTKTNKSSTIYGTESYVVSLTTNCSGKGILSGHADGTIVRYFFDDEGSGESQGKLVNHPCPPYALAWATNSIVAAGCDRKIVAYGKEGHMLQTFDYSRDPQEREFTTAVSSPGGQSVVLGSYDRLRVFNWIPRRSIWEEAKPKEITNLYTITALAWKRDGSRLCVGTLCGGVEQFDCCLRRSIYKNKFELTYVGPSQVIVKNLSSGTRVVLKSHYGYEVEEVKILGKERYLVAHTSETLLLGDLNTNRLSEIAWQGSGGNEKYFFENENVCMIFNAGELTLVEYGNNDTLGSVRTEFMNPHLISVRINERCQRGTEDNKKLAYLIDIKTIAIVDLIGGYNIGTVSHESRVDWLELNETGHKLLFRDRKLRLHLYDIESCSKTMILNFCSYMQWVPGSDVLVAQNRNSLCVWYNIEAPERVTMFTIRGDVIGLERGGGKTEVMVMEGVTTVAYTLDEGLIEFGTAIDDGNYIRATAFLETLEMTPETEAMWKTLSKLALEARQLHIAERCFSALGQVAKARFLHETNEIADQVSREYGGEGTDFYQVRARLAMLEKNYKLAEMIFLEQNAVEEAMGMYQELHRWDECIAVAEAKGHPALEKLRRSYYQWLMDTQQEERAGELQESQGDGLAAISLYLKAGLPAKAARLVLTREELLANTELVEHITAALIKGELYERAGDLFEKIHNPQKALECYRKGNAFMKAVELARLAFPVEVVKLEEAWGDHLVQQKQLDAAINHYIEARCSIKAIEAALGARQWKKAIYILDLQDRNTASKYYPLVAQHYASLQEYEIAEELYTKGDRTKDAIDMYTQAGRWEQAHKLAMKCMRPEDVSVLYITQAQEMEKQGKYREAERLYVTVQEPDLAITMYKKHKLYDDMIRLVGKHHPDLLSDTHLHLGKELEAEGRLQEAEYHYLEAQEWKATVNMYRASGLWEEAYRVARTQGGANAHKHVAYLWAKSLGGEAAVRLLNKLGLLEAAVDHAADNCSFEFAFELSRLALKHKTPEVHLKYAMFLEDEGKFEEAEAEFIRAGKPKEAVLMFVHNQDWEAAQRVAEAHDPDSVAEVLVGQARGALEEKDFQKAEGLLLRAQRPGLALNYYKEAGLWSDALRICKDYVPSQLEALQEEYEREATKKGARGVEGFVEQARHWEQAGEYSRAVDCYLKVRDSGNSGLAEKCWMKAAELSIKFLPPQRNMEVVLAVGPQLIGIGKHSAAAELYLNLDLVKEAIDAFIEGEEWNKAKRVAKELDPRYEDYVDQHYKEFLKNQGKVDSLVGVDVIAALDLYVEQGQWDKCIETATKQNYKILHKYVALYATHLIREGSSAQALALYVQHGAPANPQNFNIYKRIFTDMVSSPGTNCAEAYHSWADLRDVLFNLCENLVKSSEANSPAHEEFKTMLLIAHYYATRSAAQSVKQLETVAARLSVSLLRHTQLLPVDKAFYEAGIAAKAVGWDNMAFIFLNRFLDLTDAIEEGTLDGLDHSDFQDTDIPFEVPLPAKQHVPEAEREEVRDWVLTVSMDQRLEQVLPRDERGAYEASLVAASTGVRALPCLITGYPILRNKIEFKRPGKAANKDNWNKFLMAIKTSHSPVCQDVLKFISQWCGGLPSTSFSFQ
Chain of THADA (Q6YHU6 whole entry): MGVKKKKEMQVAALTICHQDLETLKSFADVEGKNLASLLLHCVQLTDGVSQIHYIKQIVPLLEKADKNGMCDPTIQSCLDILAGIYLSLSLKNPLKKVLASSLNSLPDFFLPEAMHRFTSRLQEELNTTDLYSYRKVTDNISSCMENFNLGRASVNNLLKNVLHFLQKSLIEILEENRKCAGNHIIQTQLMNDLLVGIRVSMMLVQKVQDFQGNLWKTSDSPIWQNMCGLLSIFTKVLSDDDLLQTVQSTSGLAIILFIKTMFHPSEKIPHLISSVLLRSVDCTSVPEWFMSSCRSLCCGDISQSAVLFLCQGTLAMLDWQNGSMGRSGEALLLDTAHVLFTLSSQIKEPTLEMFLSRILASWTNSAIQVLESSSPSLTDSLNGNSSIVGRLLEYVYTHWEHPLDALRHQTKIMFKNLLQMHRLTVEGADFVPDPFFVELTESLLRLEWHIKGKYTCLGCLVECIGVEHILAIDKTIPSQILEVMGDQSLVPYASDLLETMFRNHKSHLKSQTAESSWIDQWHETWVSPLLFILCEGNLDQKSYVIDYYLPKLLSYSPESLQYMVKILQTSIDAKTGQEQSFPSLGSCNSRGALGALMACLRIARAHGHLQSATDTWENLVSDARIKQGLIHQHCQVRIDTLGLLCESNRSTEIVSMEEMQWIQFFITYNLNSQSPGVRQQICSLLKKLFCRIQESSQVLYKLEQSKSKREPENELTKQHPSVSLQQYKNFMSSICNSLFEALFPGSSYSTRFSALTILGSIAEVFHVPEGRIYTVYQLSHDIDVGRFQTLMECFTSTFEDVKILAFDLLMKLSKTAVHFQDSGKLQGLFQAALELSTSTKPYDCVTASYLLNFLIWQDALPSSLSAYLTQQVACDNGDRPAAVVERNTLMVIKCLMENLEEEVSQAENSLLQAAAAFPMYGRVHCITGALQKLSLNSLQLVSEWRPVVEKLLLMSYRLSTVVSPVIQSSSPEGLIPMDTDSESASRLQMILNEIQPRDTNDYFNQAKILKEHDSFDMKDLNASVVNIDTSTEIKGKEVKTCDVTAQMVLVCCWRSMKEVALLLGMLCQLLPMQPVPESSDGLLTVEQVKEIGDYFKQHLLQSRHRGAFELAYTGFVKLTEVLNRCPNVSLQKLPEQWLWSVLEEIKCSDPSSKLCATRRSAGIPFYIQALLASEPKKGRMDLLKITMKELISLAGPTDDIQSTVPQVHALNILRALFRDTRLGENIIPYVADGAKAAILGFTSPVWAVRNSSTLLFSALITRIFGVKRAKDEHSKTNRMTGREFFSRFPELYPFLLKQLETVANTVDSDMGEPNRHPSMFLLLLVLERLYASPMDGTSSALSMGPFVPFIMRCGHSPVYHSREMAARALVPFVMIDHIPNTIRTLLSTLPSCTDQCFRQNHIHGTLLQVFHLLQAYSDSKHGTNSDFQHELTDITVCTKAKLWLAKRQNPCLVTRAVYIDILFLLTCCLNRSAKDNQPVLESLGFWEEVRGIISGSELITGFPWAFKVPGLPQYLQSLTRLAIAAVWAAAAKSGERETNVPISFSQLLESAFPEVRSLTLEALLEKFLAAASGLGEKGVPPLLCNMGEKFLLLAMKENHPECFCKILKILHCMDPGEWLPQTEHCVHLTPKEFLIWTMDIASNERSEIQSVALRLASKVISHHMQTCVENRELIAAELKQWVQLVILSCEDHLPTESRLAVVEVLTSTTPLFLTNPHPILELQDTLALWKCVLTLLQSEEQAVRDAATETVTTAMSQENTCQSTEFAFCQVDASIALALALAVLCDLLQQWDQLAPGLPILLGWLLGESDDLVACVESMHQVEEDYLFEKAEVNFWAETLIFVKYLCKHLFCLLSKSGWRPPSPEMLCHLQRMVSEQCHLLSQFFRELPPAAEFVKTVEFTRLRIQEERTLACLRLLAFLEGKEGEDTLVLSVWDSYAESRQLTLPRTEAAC

B1: LZTR1-FLAG (other, human, UniProt Q8N653 1-840, looked up)
chain: MAGPGSTGGQIGAAALAGGARSKVAPSVDFDHSCSDSVEYLTLNFGPFETVHRWRRLPPCDEFVGARRSKHTVVAYKDAIYVFGGDNGKTMLNDLLRFDVKDCSWCRAFTTGTPPAPRYHHSAVVYGSSMFVFGGYTGDIYSNSNLKNKNDLFEYKFATGQWTEWKIEGRLPVARSAHGATVYSDKLWIFAGYDGNARLNDMWTIGLQDRELTCWEEVAQSGEIPPSCCNFPVAVCRDKMFVFSGQSGAKITNNLFQFEFKDKTWTRIPTEHLLRGSPPPPQRRYGHTMVAFDRHLYVFGGAADNTLPNELHCYDVDFQTWEVVQPSSDSEVGGAEVPERACASEEVPTLTYEERVGFKKSRDVFGLDFGTTSAKQPTQPASELPSGRLFHAAAVISDAMYIFGGTVDNNIRSGEMYRFQFSCYPKCTLHEDYGRLWESRQFCDVEFVLGEKEECVQGHVAIVTARSRWLRRKITQARERLAQKLEQEAAPVPREAPGVAAGGARPPLLHVAIREAEARPFEVLMQFLYTDKIKYPRKGHVEDVLLIMDVYKLALSFQLCRLEQLCRQYIEASVDLQNVLVVCESAARLQLSQLKEHCLNFVVKESHFNQVIMMKEFERLSSPLIVEIVRRKQQPPPRTPLDQPVDIGTSLIQDMKAYLEGAGAEFCDITLLLDGHPRPAHKAILAARSSYFEAMFRSFMPEDGQVNISIGEMVPSRQAFESMLRYIYYGEVNMPPEDSLYLFAAPYYYGFYNNRLQAYCKQNLEMNVTVQNVLQILEAADKTQALDMKRHCLHIIVHQFTKVSKLPTLRSLSQQLLLDIIDSLASHISDKQCAELGADI
notes: Expressed in HEK 293T, HeLa or U87 cells; used as cell lysate; also called LZTR1 wild type-FLAG; LZTR1 WT; not shown: FLAG tag at the C-terminus
binds: IFT172 | HECTD3 | POLR3A | THADA
